Target: GST-Grb2(SH2) SH2 domain (UniProt P62993)
Assay: GST-Grb2(SH2) pull-down, anti-HA blot
Conditions: reference: HA-ShcWT; sites Y317

HA-tagged Shc (52 kDa isoform) (from UniProt P29353-2) HA-ShcY317F
binding against the reference: weaker

— article PMC2364237
